Drawing on patent US8138323, this text covers bound CPM for three substances.

Assay [1] deals with Tumor Necrosis Factor (TNF) Binding Protein II (human) (UniProt P20333). As to the kind of experiment: solid phase assay, 125I-TBP-II bound to TNF-α with 10 µg/ml IL-1α as competitor.
Assay [2] addresses TNF Binding Protein I (human) (UniProt P19438). As to the kind of experiment: solid phase assay, 125I-TBP-I bound to TNF-α with 10 µg/ml IL-1α as competitor.
Assay [3] addresses Tumor Necrosis Factor (TNF) Binding Protein II (human) (UniProt P20333). As to the kind of experiment: solid phase assay, 125I-TBP-II bound to TNF-α with 10 µg/ml IFN-gamma as competitor.
Assay [4] deals with TNF Binding Protein I (human) (UniProt P19438). As to the kind of experiment: solid phase assay, 125I-TBP-I bound to TNF-α with 10 µg/ml IFN-gamma as competitor.
Assay [5] has the same target. As to the kind of experiment: solid phase assay, 125I-TBP-I bound to TNF-α with 10 µg/ml IL-6 as competitor.
For assay [6], the target named is Tumor Necrosis Factor (TNF) Binding Protein II (human) (UniProt P20333). As to the kind of experiment: solid phase assay, 125I-TBP-II bound to TNF-α with 10 µg/ml IL-6 as competitor.

Regarding “IL-1α (from UniProt P01583 113-271) (ligand)”, the bound CPM in assay [1] was 17800 CPM; in assay [2], 28100 CPM.

“IFN-gamma (from UniProt P01579 24-166) (ligand)”: the bound CPM stood at 18500 CPM in assay [3] and 28000 CPM in assay [4].

For the substance “IL-6 (from UniProt P05231 30-212) (ligand)”, the bound CPM in assay [5] was 27000 CPM; in assay [6] it was 18600 CPM.
